Laboratory results: PMC7556464, “4CMenB vaccine induces elite cross-protective human antibodies that compete with human factor H for binding to meningococcal fHbp” (PLoS Pathogens, 2020)

Assays:
Test in all cases: SPR
Settings in all cases: both partners purified
[1] = molecular target: T1, factor H binding protein (fHbp) variant 1.1, recombinant (Neisseria meningitidis MC58, fHbp v1.1)
T1 construct: also called fHbp v1.1; fHbp v1; source: E. coli BL21(DE3), purified (Ni-NTA, SEC when necessary); not shown: His6, C-terminal, kept
T1 chain: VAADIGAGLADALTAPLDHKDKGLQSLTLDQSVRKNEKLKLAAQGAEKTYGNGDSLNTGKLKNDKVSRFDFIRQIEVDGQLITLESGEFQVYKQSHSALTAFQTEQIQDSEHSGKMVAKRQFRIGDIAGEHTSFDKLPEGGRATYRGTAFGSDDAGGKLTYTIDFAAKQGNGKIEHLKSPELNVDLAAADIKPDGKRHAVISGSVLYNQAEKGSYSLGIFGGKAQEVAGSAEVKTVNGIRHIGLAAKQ

[2] = molecular target: T2, factor H binding protein (fHbp) variant 3.28, recombinant (Neisseria meningitidis M1239, fHbp v3.28, UniProt Q19KF7, strain)
T2 construct: also called fHbp v3.28; fHbp v3; source: E. coli BL21(DE3), purified (Ni-NTA, SEC when necessary)

[3] = molecular target: T3, factor H binding protein (fHbp) variant 2.16, recombinant (Neisseria meningitidis 961-5945, UniProt Q6VS19, strain)
T3 construct: also called fHbp v2.16; fHbp v2; source: E. coli BL21(DE3), purified (Ni-NTA, SEC when necessary)

[4] = molecular target: T4, factor H binding protein (fHbp) variant 2.16 (Neisseria meningitidis 961-5945, UniProt Q6VS19, strain)
T4 construct: also called fHbp v2.16; fHbp v2; source: E. coli BL21(DE3), purified (Ni-NTA; SEC when necessary)

[5] = molecular target: T5, factor H binding protein (fHbp) variant 1.1 (Neisseria meningitidis MC58, fHbp v1.1, strain)
T5 construct: also called fHbp v1.1; fHbp v1; source: E. coli BL21(DE3), purified (Ni-NTA; SEC when necessary)
T5 chain: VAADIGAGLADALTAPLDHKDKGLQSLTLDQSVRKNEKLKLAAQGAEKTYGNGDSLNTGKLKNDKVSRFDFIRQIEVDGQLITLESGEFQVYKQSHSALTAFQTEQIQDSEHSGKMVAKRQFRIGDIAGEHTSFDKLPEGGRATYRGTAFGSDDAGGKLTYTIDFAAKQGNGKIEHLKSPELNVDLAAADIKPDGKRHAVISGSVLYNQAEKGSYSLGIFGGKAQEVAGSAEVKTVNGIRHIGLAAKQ

[6] = molecular target: T6, factor H binding protein (fHbp) variant 3.28 (Neisseria meningitidis M1239, fHbp v3.28, UniProt Q19KF7, strain)
T6 construct: also called fHbp v3.28; fHbp v3; source: E. coli BL21(DE3), purified (Ni-NTA; SEC when necessary)

Binder | Kd [1] [nM] | Kd [2] [nM] | Kd [3] [nM] | koff [4] [s⁻¹] | kon [4] [M⁻¹ s⁻¹] | koff [5] [s⁻¹] | kon [5] [M⁻¹ s⁻¹] | koff [6] [s⁻¹] | kon [6] [M⁻¹ s⁻¹] | Kd [4] [nM]
human anti-fHbp mAb 3B7 (antibody, V domains shown, source: Expi293, transient transfection, purified (protein G Sepharose)) VH: EVQLVQSGAEVKKPGSSVKVSCKASGDTFSNYPISWVRQAPGQGLEWMGGIIPIFGTANYAQKFQGRVTITADESTSTPYMELSSLRSEDTAVYYCARGDTAMAPFDYWGQGTLVTVSS VL: SYVLTQPPSVSVAPGKTARITCGGNSIGSKSVHWYQQKPGQAPVLVIYYDSDRPSGVPERISGSNSGNTATLTISRVEAGDEADYYCQVWDSSSDSWVFGGGTKLTVL [human anti-fHbp mAb 3B7, listing 1 of 2 here] | 2.6 | 2.2 | 0.551 | – | – | – | – | – | – | –
human anti-fHbp mAb 3B7 (antibody, V domains shown, source: Expi293, transient transfection, purified (protein G Sepharose)) VH: EVQLVQSGAEVKKPGSSVKVSCKASGDTFSNYPISWVRQAPGQGLEWMGGIIPIFGTANYAQKFQGRVTITADESTSTPYMELSSLRSEDTAVYYCARGDTAMAPFDYWGQGTLVTVSS VL: SYVLTQPPSVSVAPGKTARITCGGNSIGSKSVHWYQQKPGQAPVLVIYYDSDRPSGVPERISGSNSGNTATLTISRVEAGDEADYYCQVWDSSSDSWVFGGGTKLTVL [human anti-fHbp mAb 3B7, listing 2 of 2 here] | – | – | – | 7.13e-06 | 1.32e+06 | 0.00442 | 1.71e+06 | 0.00083 | 382000 | –
human anti-fHbp mAb 5F12 (antibody, V domains shown, source: Expi293, transient transfection, purified (protein G Sepharose)) VH: EVQLVESGGDLVKPGGSLRLSCAASGFTFSNYTMNWVRQAPGKGLEWVSSITSSSSFKYYADSVKGRFTISRDNAKNSVFLQMNSLRAEDTAIYYCARRIDSSDQDWFYYYGMDVWGLGTTVTVSS VL: QSVLTQPPSVSAAPGQRVTISCSGSSSNIGDNYISWYQQLPGTAPKLLIYDNDQRPSGTPDRFSASKSGTSATLGVTGLQTGDEADYYCGTWDSSLNAPVFGSGTKVTVL | – | – | – | 0.00188 | 690000 | 0.000846 | 854000 | 0.00613 | 350000 | –
human anti-fHbp mAb 4B10 (antibody, V domains shown, IgG1; source: Expi293, transient transfection, purified (protein G Sepharose)) VH: EVQLVESGGGLVKPGGSLRLSCAASGFAFSTYSLHWVRQAPGKGLEWVSAITSSGSFLYYADSLKGRFTVSRDNAKNSLFLQMNSLRAGDTAVYYCARALQVEDGFPMFSGLDVWGQGTTVTVSS VL: QTVVTQPPSVSEAPRQRVAISCSGSSSNIGDNSVSWYQQLPGKAPKLLIYDDDLLPSGVSDRFSASKSGTSASLAISGLQSEDEAEYYCAAWDDSLKGVVFGGGTKLTVL | 0.296 | 1.67 | – | – | – | – | – | – | – | –
human anti-fHbp mAb 4B10 (antibody, V domains shown, source: Expi293, transient transfection, purified (protein G Sepharose)) VH: EVQLVESGGGLVKPGGSLRLSCAASGFAFSTYSLHWVRQAPGKGLEWVSAITSSGSFLYYADSLKGRFTVSRDNAKNSLFLQMNSLRAGDTAVYYCARALQVEDGFPMFSGLDVWGQGTTVTVSS VL: QTVVTQPPSVSEAPRQRVAISCSGSSSNIGDNSVSWYQQLPGKAPKLLIYDDDLLPSGVSDRFSASKSGTSASLAISGLQSEDEAEYYCAAWDDSLKGVVFGGGTKLTVL | – | – | – | 0.000706 | 1.57e+07 | 0.0025 | 7.7e+06 | 0.000473 | 284000 | 0.0451
human anti-fHbp mAb 1D1 (antibody, V domains shown, source: Expi293, transient transfection, purified (protein G Sepharose)) VH: QVQLVGSGGGLVKPGGSLRLSCAASGFTFSSYTMNWVRQAPGKGLEWVSSISSSSGYIYYADSLKGRFTISRDDAKNSLFLQMNSLRAEDTAVYFCARDKVLPAPPGFYGLDVWGPGTTVTVSS VL: QSVVTQPPSVSAAPGQKVTISCSGSSSNIEDNFVSWYQQLPGTAPKLLIYDNNQRPSGIPDRFSGSKSGTSATLGITGLQTGDEADYYCATWDNSLSARVFGGGTKLTVL | – | – | – | 0.00264 | 450000 | 0.00154 | 1.81e+06 | 0.000642 | 371000 | –
human anti-fHbp mAb 3F1 (antibody, V domains shown, source: Expi293, transient transfection, purified (protein G Sepharose)) VH: EVHLVESGGGLVKPGGSLRLSCAASGFTFSSYTMNWVRQAPGKGLEWVSSISSSSGYIYYADSLKGRFTISRDNAKNSLFLQMNSLRAEDTAVYFCARDKVLPAPPGFYGLDVWGPGTTVTVSS VL: QSVVTQPPSVSAAPGQKVTISCSGSSSNIEDNFVSWYQQLPGTAPKLLIYDNNQRPSGIPDRFSGSKSGTSATLGITGLQTGDEADYYCATWDNSLSARVFGGGTKLTVL | – | – | – | 0.00478 | 382000 | 0.000917 | 885000 | 0.00063 | 340000 | –
human anti-fHbp mAb 2C8 (antibody, V domains shown, source: Expi293, transient transfection, purified (protein G Sepharose)) VH: QVQLVQSGAEVKKPGSSVKVSCKASGGTVINYPISWVRQVPGQGLEWMGRLVPLFGTPNYGQKFQGRITITADKSTSAAYMELIGLKSEDTAVYYCARGDTAMAPFDYWGHGTLVTVSS VL: QLVLTQPPSVSVAPGKTATITCGGNNVGGKTVHWYQQKPGQAPVLVMSYDSDRPSGIPERFSGSNSGNTATLTISRVEAEDEADYYCQVWHGNDDHWVFGGGTKLTVL | – | – | – | 0.000689 | 1.31e+07 | 0.000388 | 1.16e+06 | 0.0002 | 430000 | –
human anti-fHbp mAb 1E10 (antibody, V domains shown, IgG1; source: Expi293, transient transfection, purified (protein G Sepharose)) VH: QVQLVESGGDLVKPGGSLRLSCVASGFTFSSYTMNWVRQAPGKGLEWVSSITSSSSFTYYADSVKGRFIISRDNAKNSLSLQMNNLRVEDTATYYCARRKDSSDYDWYYYYGMDVWGLGTTVTVSS VL: QSVVTQPPSVSAAPGQKVTISCSGSSSNIGDNYMSWYQQIPGTAPKLLIFDNDQRPSGIPDRFSASKSGTSATLDITGFQTGDEADYYCGTWDSGLSAPVFGGGTKLTVL | 1.54 | 1.27 | 1.4 | – | – | – | – | – | – | –
human anti-fHbp mAb 2G1 (antibody, V domains shown, source: Expi293, transient transfection, purified (protein G Sepharose)) VH: QVQLVESGGDLVKPGGSLRLSCVASGFTFSSYTMNWVRQAPGKGLEWVSSITSSSSFTYYADSVKGRFIISRDNAKNSLSLQMNNLRVEDTATYYCARRKDSSDYDWYYYYGMDVWGLGTTVTVSS VL: QSVLTQPPSVSAAPGQKVTISCSGSSSNIGDNYMSWYQQIPGTAPKLLIFDNDQRPSGIPDRFSASKSGTSATLDITGFQTGDEADYYCGTWDSGLSAPVFGGGTKLTVL | – | – | – | 0.00045 | 270000 | – | – | 0.000584 | 332000 | –
human anti-fHbp mAb 1E10 (antibody, V domains shown, source: Expi293, transient transfection, purified (protein G Sepharose)) VH: QVQLVESGGDLVKPGGSLRLSCVASGFTFSSYTMNWVRQAPGKGLEWVSSITSSSSFTYYADSVKGRFIISRDNAKNSLSLQMNNLRVEDTATYYCARRKDSSDYDWYYYYGMDVWGLGTTVTVSS VL: QSVVTQPPSVSAAPGQKVTISCSGSSSNIGDNYMSWYQQIPGTAPKLLIFDNDQRPSGIPDRFSASKSGTSATLDITGFQTGDEADYYCGTWDSGLSAPVFGGGTKLTVL | – | – | – | 0.00079 | 630000 | 0.000657 | 427000 | 0.000495 | 390000 | –
human anti-fHbp mAb 5C6 (antibody, V domains shown, source: Expi293, transient transfection, purified (protein G Sepharose)) VH: EVQLLESGGGLVQPGGSLRLSCAASGFTFSSYAMSWVRQTPGKGLEWVSAISGSGGSTYYADSVQGRFTISRDNSKNTLYLQINSLRAEDTAVYYCAKDPGFVLSSGWYYFDYWGQGTLVTVSS VL: not shown | – | – | – | 0.000345 | 204000 | 0.000454 | 420000 | 0.00071 | 350000 | –
human anti-fHbp mAb 4F9 (antibody, V domains shown, source: Expi293, transient transfection, purified (protein G Sepharose)) VH: QVQLVQSGGGLVKPGGSLRLSCAASGFPFSSYYMSWIRQAPGKGLEWVSDINNSGNVKEYADFVKGRLTISRDNVKNSMYLHMNSLRVEDTAVYYCARNRGRFDVWGQGTLVTVSA VL: EIVMTQSPGTLSLSPGETATLSCRASQMISSPFLAWYQQRRGQAPRLLIYGASTRATDTPDRFRGSGSGTDFILTISRLEPEDFAVYYCQHYDDSPFTFGQGTKLEIK | – | – | – | 3.3e-05 | 1.16e+06 | 0.00251 | 3.29e+07 | 0.00095 | 380000 | –
human anti-fHbp mAb 3G7 (antibody, V domains shown, source: Expi293, transient transfection, purified (protein G Sepharose)) VH: EVQLLQSGGGLVKPGGSLRLSCAASGFPFSSYYMSWIRQAPGKGLEWVSDINNSGNVKEYADFVKGRLTISRDNVKNSMYLHMNSLRVEDTAVYYCARNRGRFDVWGQGTLVTVSA VL: EIVLTQSPGTLSLSPGETATLSCRASQMISSPFLAWYQQRRGQAPRLLIYGASTRATDTPDRFRGSGSGTDFILTISRLEPEDFAVYYCQYYDDSPFTFGQGTKLEIK | – | – | – | 3.89e-05 | 741000 | 0.000311 | 903000 | 0.000176 | 258000 ± 0.01 | –
human anti-fHbp mAb 4B3 (antibody, V domains shown, source: Expi293, transient transfection, purified (protein G Sepharose)) VH: QVQLVQSGGGLVKPGGSLRLSCAASGFPFSSYYMSWIRQAPGKGLEWVSDINNSGNVKEYADFVKGRLTISRDNVKNSMYLHMNSLRVEDTAVYYCARNRGRFDVWGQGTLVTVSA VL: EIVMTQSPGTLSLSPGETATLSCRASQMISSPFLAWYQQRRGQAPRLLIYGASTRATDTPDRFRGSGSGTDFILTISRLEPEDFAVYYCQYYDDSPFTFGQGTKLEIK | – | – | – | 7.98e-05 | 2.73e+06 | 0.000217 | 661000 | 0.0002 | 315000 | –
